Test results published in the supplement of paper PMC10567573.
± gives the standard deviation.

Assay: protein stability index of a GFP-peptide fusion (GPS, HEK-293T) (PSI 1-6); higher = more stable
[1] = treatment: DMSO, c terminus: native
[2] = treatment: MLN4924 1 uM, 8 h, c terminus: native
[3] = treatment: DMSO, c terminus: a fixed tail appended
[4] = treatment: MLN4924 1 uM, 8 h, c terminus: a fixed tail appended
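Also: 24-mer peptide tiles fused after GFP, lentivirally expressed, FACS-sorted into six equal bins by GFP/DsRed ratio, decoded by Illumina sequencing, PSI is the read-weighted mean bin number.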

| Sequence | protein stability index [1] | protein stability index [2] | protein stability index [3] | protein stability index [4] |
| --- | --- | --- | --- | --- |
| TSGNPNGRYGSGYLLASTPESEL [SLC6A17] | 4.62 ± 0.37 | 4.58 ± 0.2 |  |  |
| ATLTTTSATSKLIHPDEDISLEER [ZNF207] |  |  | 5.23 ± 0.064 | 5.35 ± 0.27 |
| EANSAKVQEDLEAEFQSLFSLLEE [FSD1] |  |  | 5.02 ± 0.09 | 5.05 ± 0.12 |
| VSLVTAELSKDAQASAAPAAPLPE [SLC29A1] |  |  | 4.44 ± 0.18 | 4.47 ± 0.16 |
| MTTPAGSGSGFGSVSWWGLSPALD [DNAAF3] |  |  | 2.47 ± 0.29 | 2.75 ± 0.36 |
| DETLYQEFNGLKKMNPKLKTLLAI [CHIT1] |  |  | 2.3 ± 0.17 | 2.52 ± 0.47 |
| GDFEEAFDHLQNRLIATKNPEEIR [TENT5C] |  |  | 5.16 ± 0.17 | 5.19 ± 0.21 |
| DTKMSFQWRIRNLPYPKDVYSVSV [DPCD] |  |  | 2.79 ± 0.52 | 2.71 ± 0.65 |
| QELIETNQQLRNELQLEQSRAANQ [CEP70] |  |  | 5.122 ± 0.01 | 5.05 ± 0.26 |
| KPEAPLHLPVTFPGKDYDADRQCQ [ADAMTS4] |  |  | 5.05 ± 0.15 | 5.13 ± 0.22 |
| PDQVAPFTFLQPLPLSPGVLSSTP [ATF4] |  |  | 3.44 ± 0.33 | 3.74 ± 0.19 |
| SMKHTATARFQRNHRLISEILSES [SMARCE1] |  |  | 2.95 ± 0.12 | 3.24 ± 0.5 |
| ALTGHLRTHSVIKEETNHSEMAED [IKZF1] |  |  | 5.38 ± 0.23 | 5.13 ± 0.31 |
| VNVGTTALWKHLKSMHREELEKSG [ZBED2] |  |  | 3.65 ± 0.24 | 3.48 ± 0.23 |
| GFEYDGKINAWDLYYYMTQTEELK [NLN] |  |  | 2.81 ± 0.035 | 2.49 ± 0.39 |
| VCYHYYADWFMSLGVGLLTFASLE [TMEM40] |  |  | 3.04 ± 0.18 | 3.08 ± 0.18 |
| AIVQQVPAPSRMQMPQGNPLLLSH [SNX8] |  |  | 2.72 ± 0.38 | 2.7 ± 0.31 |
| AHKMKFSDLFSLAEEYEDSSTKPP [INTS3] |  |  | 4.22 ± 0.17 | 4.17 ± 0.1 |
| NQSFNIVDIKPANMEELTEVITAA [PPP2R2B] |  |  | 4.18 ± 0.26 | 4.26 ± 0.16 |
| EDEKLCDPNTRPVGEKNCTGPPCD [ADAMTSL2] |  |  | 5.47 ± 0.21 | 5.46 ± 0.26 |
| LYLRVELSDVQNPAISITENVLHF [HACD3] |  |  | 2.82 ± 0.57 | 2.88 ± 0.64 |
| RFGQTIQSFTLRGDHRSPASAQKF [NET1] |  |  | 3.14 ± 0.27 | 3.27 ± 0.32 |
| IKLIDFGIAHKIEAGNEFKNIFGT [DAPK3] |  |  | 2.47 ± 0.31 | 2.32 ± 0.21 |

| Sequence | protein stability index [1] | protein stability index [2] | protein stability index [3] | protein stability index [4] |
| --- | --- | --- | --- | --- |
| SEVSCKKRDDYLEWPEYFMAVAFL [DCTD] |  |  | 2.15 ± 0.48 | 2.16 ± 0.26 |
| FDLAKGNAGKVNLPKELPADAVNL [PLAGL1] |  |  | 4.41 ± 0.21 | 4.5 ± 0.29 |
| IRTSERVTLIVDNTRFVVDPSIFT [BTBD10] |  |  | 2.35 ± 0.41 | 2.36 ± 0.45 |
| ELRLVFGPLGDQLHAQLRDLTSSS [ELF3] |  |  | 2.17 ± 0.25 | 2.25 ± 0.29 |
| RLVSSPCCIVTSTYGWTANMERIM [HSP90AB1] |  |  | 2.86 ± 0.68 | 2.35 ± 0.33 |
| LVDHVGSKTFLCIGSSVMAASLVT [SLC2A12] |  |  | 3.06 ± 0.76 | 3.05 ± 0.57 |
| LLMAVVSMFTLPVVYVKHQAQIDQ [RTN1] |  |  | 2.99 ± 0.39 | 3.32 ± 0.43 |
| LNYLRDGSVPLPESTRELGELLGE [KCTD13] |  |  | 4.5 ± 0.21 | 4.64 ± 0.24 |
| TSPHFSTRHEGSFQVPVLCAVMNV [CD69] |  |  | 2.81 ± 0.51 | 2.63 ± 0.59 |
| HCNVSNILHMNGSQSSTYRGTYEQ [ZNF396] |  |  | 3.17 ± 0.21 | 3.24 ± 0.088 |
| QWWASVGMDDFLGVYSMPAGTKVF [TLE6] |  |  | 2.23 ± 0.82 | 2.26 ± 0.45 |
| FQVLCSINSIIHNPRAPVIIYKQT [CEP70] |  |  | 2.76 ± 0.83 | 2.6 ± 1.1 |
| NLSRGQTPLTEGSEDLDGHSDPEE [RETREG3] |  |  | 5.65 ± 0.22 | 5.67 ± 0.15 |
| KRRPKAQPTTLVLPPQYVDDVISR [MED27] |  |  | 4.03 ± 0.12 | 4.06 ± 0.17 |
| YEKFKLYLTIILILISFTCRFLLN [TMEM120A] |  |  | 3.05 ± 0.21 | 2.91 ± 0.39 |
| VLYALRSFDYEQFHELQMQVTASD [PCDHGA10] |  |  | 2.26 ± 0.12 | 2.22 ± 0.27 |
| REQADSCREQLDIMNDLSNRVWSI [TRIM14] |  |  | 2.23 ± 0.11 | 2.28 ± 0.46 |
| RLLSDATVEKDESHAGKVVLRSWY [FAM50A] |  |  | 3.02 ± 0.11 | 3.26 ± 0.12 |
| LHYGLPVVVKLLHPPSHWPLIKAT [CTNNB1] |  |  | 2.3 ± 0.45 | 2.46 ± 0.42 |
| ICYLPHWMMQNLLLEEGGLVQVES [UFD1] |  |  | 2.65 ± 0.34 | 2.7 ± 0.5 |
| GIETLESVPIIGGFWETIFGNRIK [PHTF1] |  |  | 2.67 ± 0.41 | 2.81 ± 0.18 |
| VDISVPPTTDGQKPNKLQCCQNL [RAB11B] | 4.77 ± 0.31 | 4.93 ± 0.091 |  |  |
| RRGELRHITKLKPWSLFDVLVEKY [SRPK2] |  |  | 2.4 ± 0.53 | 2.12 ± 0.057 |

| Sequence | protein stability index [1] | protein stability index [2] | protein stability index [3] | protein stability index [4] |
| --- | --- | --- | --- | --- |
| KIWRTPNGKTIEMDTQFTIRAREL [IQUB] |  |  | 2.55 ± 0.24 | 2.66 ± 0.19 |
| GAKDHASIQMNVAEVSWEPGRREG [RPS21] |  |  | 4.14 ± 0.49 | 4.41 ± 0.41 |
| SSSNEHAAPAAKTRKQAAKKVAPL [ELOA2] |  |  | 4.85 ± 0.32 | 4.92 ± 0.26 |
| AGGFSIRNQKGEQVFRLAFRSGAL [MYORG] |  |  | 1.77 ± 0.2 | 2.28 ± 0.39 |
| TCSFNPGVIVANMTEWKHQRITKQ [GLT8D2] |  |  | 3.12 ± 0.11 | 3.06 ± 0.15 |
| QPKKNNVMARTRLVVPNKGYSSLD [FAM219A] |  |  | 3.85 ± 0.3 | 4.07 ± 0.27 |
| MQSARGPTPSSPLPSVPVSVPASD [PLEKHN1] |  |  | 4.78 ± 0.28 | 4.79 ± 0.11 |
| MRRMVATWMLEVCEEQKCEEEVFP [CCND2] |  |  | 2.9 ± 0.46 | 3.14 ± 0.045 |
| PLRVDLILENTSKVPAPKDVLAHQ [NOP53] |  |  | 3.28 ± 0.036 | 3.5 ± 0.29 |
| RIHVGKKYGDIPRGIFVVRGENVV [LSM1] |  |  | 2.37 ± 0.17 | 2.24 ± 0.15 |
| AGARKIYAVEASTMAQHAEVLVKS [CARM1] |  |  | 3.79 ± 0.39 | 4.07 ± 0.58 |
| QAVSAPGILNRPPAPTATVPAPQP [ZNF207] |  |  | 4.76 ± 0.17 | 4.91 ± 0.17 |
| YSALREESAKDWETSPLPGMLAPA [PPFIA4] |  |  | 4.26 ± 0.23 | 4.04 ± 0.21 |
| FDPDAKGLSDPGKIKRLRSQVQVS [HNF4A] |  |  | 3.84 ± 0.18 | 4.06 ± 0.28 |
| EDVKCQEDQKLQVLLTQIESKKHQ [TRIM15] |  |  | 5.12 ± 0.32 | 5.18 ± 0.1 |
| MSKQRERQLRRRALHPERAMDNHS [RETREG3] |  |  | 4.31 ± 0.17 | 4.44 ± 0.088 |
| PRAGKEESGVSVSNSQPTNESHSI [SLC29A1] |  |  | 5.33 ± 0.25 | 5.26 ± 0.27 |
| EGTSSIVMEIQKQIEKKEKKLHKI [TAF7L] |  |  | 4.18 ± 0.044 | 4.76 ± 0.15 |
| QPRGGVSSRIEQGEWGGRHPSWPW |  |  | 2.99 ± 0.44 | 3 ± 0.68 |
| RDEVAFHTAKCEKLQKEKEELERR [MTUS2] |  |  | 5.61 ± 0.17 | 5.44 ± 0.33 |
| PICSANHKESKMTIFEKENFIGRQ [CRYBA1] |  |  | 3.34 ± 0.27 | 3.46 ± 0.18 |
| ILALELICSLICLLIYTVKIRRFN [TMEM192] |  |  | 3.42 ± 0.29 | 3.2 ± 0.41 |
| DFLIRDSESSPSDFSVSLKASGKN [NCK2] |  |  | 4.25 ± 0.25 | 4.4 ± 0.18 |

| Sequence | protein stability index [1] | protein stability index [2] | protein stability index [3] | protein stability index [4] |
| --- | --- | --- | --- | --- |
| VKNDRDRVGHKSIPMRNLRARPAK [SERPINB5] |  |  | 3.98 ± 0.35 | 4.4 ± 0.11 |
| AKHLIASMLSKNPEDRPSLDDIIR [PLK2] |  |  | 2.61 ± 0.38 | 2.79 ± 0.24 |
| NLFCVLRLVVEFPATGGAIPSWQI [PKD2L1] |  |  | 3.39 ± 0.28 | 3 ± 0.5 |
| HTKELEDKVIELHKSHRGMTPAEA [EPB41L3] |  |  | 5.2 ± 0.24 | 5.13 ± 0.16 |
| GVVQALIVGYAFHFPHLLSPQIQR [TMEM175] |  |  | 3.53 ± 0.28 | 3.25 ± 0.25 |
| QFSDEVEPATPEEGEPATQRQDPA [GAGE1] |  |  | 5.6 ± 0.11 | 5.57 ± 0.096 |
| DNWKSQVEPETRAVIRWMHSFNFV [CPN1] |  |  | 2.26 ± 0.52 | 2.23 ± 0.14 |
| GDTVVQGDLQETTVVTGLGPDTQD [PBXIP1] |  |  | 5.56 ± 0.17 | 5.63 ± 0.23 |
| TMGAVVLSSTLLSFSTAIGRTCIT [MFSD9] |  |  | 2.98 ± 0.48 | 3.22 ± 0.29 |
| IKIFKYISFNKTMTQLSSTLARCA [PKD2L1] |  |  | 2.37 ± 0.15 | 2.26 ± 0.19 |
| NKQTLSSGEKYDPDANTWTALPPM [GAN] |  |  | 4.07 ± 0.39 | 4.03 ± 0.1 |
| GNISGEFWLGNEALHSLTQAGDYS [TNXB] |  |  | 3.21 ± 0.091 | 3.36 ± 0.34 |
| WIGKQLPTPVGAVQQDPALSSNRE [CSNK1G3] |  |  | 4.11 ± 0.19 | 4.48 ± 0.26 |
| KLTDFGFAKKLVDRTWTLCGTPEY [PRKX] |  |  | 2.12 ± 0.11 | 2.27 ± 0.23 |
| KEHAVTMPCTWVMACAYAPSGCAI [GNB5] |  |  | 2.8 ± 0.36 | 2.49 ± 0.59 |
| ALGDIREVQKLVESGVDVNSQNEV [ANKRD40] |  |  | 5.28 ± 0.3 | 5.24 ± 0.29 |
| GGLMARPEYREWNPELIKPKKLLN [FAM107A] |  |  | 3.68 ± 0.36 | 4.495 ± 0.034 |
| KEGPMIHSGSVVGAGLPQFQSISL [CLCN6] |  |  | 2.91 ± 0.12 | 2.86 ± 0.35 |
| KRVYEEFTKVVQPQEEIATKKLRL [INTS4] |  |  | 3.31 ± 0.33 | 3.86 ± 0.36 |
| YKMFASRRKQRYWPFSMDCTGTEA [LOXL2] |  |  | 2.3 ± 0.27 | 2.15 ± 0.33 |
